Test results: patent publication US20220112288A1 (published 2022)

Experiments:
[1] = target: T1, human CD4 on cells (SKW3 cells; human PBMCs) (human, UniProt P01730 26-458); test: FACS confirmation, supernatant on SKW3 cells; background gMFI 2500
T1 construct: whole, on cells; SKW3 CD4 knockout cells served as the negative cell line in the primary screen; also called hCD4; huCD4

[2] = target: T1, human CD4 on cells (SKW3 cells; human …); test: FACS confirmation, supernatant on human PBMCs;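 note: flow cytometry with hybridoma supernatants incubated on human PBMCs for 30 min at 4 °C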
[3] = target: T1, human CD4 on cells (SKW3 cells; human …); test: FACS primary screen, hybridoma supernatant, SKW3 vs SKW3 CD4 KO cells;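 note: flow cytometry on mixed SKW3 and dye-labeled SKW3 CD4 knockout cells after 30 min at 4 °C with supernatant, ratio of binding signal on parental versus knockout cells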
[4] = target: T1, human CD4 on cells (SKW3 cells; human …); test: FACS confirmation, supernatant on SKW3 cells; background gMFI 3300
[5] = target: T2, human CD4 on cells (SKW3 cells; human PBMCs) (human, UniProt P01730 26-458); test: FACS primary screen, non-clonal hybridoma supernatant, SKW3 vs SKW3 CD4 knockout cells, anti-human kappa FITC
T2 construct: whole, on cells; SKW3 CD4 knockout cells served as the negative cell line; also called hCD4

[6] = target: T2, human CD4 on cells (SKW3 cells; human …); test: FACS confirmation, supernatant on SKW3 WT cells, anti-mouse Fc 647; background gMFI 3300
huCD4-HIS = target: T3, huCD4-HIS (human, UniProt P01730 26-390, limits assumed); test: ELISA binning, competitor Ibalizumab; 100 ng/mL huCD4-HIS, anti-HIS HRP detection; background 45, max binding 3000000
T3 construct: the ELISA binning is not described in the text of this stretch

[7] = target: T2, human CD4 on cells (SKW3 cells; human …); test: FACS binning on SKW3 cells pre-incubated with supernatant; competitor RPA-T4-PE-Dazzle 594, its signal read; background 783, max binding 15000
[8] = target: T2, human CD4 on cells (SKW3 cells; human …); test: FACS binning on SKW3 cells pre-incubated with supernatant; competitor OKT4-A488, its signal read; background 2163, max binding 8200
[9] = target: T2, human CD4 on cells (SKW3 cells; human …); test: FACS confirmation, supernatant on human PBMCs, anti-mouse Fc 647, CD4+ percent of viable cells
[10] = target: T2, human CD4 on cells (SKW3 cells; human …); test: FACS binning on SKW3 cells pre-incubated with supernatant; competitor OKT4a read with anti-human A647 secondary; background 5000, max binding 35000
[11] = target: T2, human CD4 on cells (SKW3 cells; human …); test: FACS confirmation, supernatant on human PBMCs, anti-mouse Fc 647, CD4+ gate
[12] = target: T2, human CD4 on cells (SKW3 cells; human …); test: FACS primary screen, non-clonal hybridoma supernatant, SKW3 vs SKW3 CD4 knockout cells, anti-mouse Fc A647
[13] = target: T2, human CD4 on cells (SKW3 cells; human …); test: FACS confirmation, supernatant on SKW3 WT cells, anti-human kappa FITC; background gMFI 2500

Binder	gMFI on SKW3 WT, anti-hu Kappa FITC [1] [gMFI]	PBMCs CD4+ gate RL1 binding, anti-mFc 647 [2]	PBMCs CD4+ percent bound of viable [2] [%]	SKW3 WT vs KO ratio, anti-hKappa-FITC [3]	SKW3 WT vs KO ratio, anti-mFc-647 [3]	gMFI on SKW3 WT, anti-mFc 647 [4] [gMFI]	SKW3 WT vs KO anti-hKappa-FITC [5] [fold]	SKW3 WT anti-mFc 647, gMFI [6] [gMFI]	Ibalizumab ELISA binning signal (huCD4-HIS)	SKW3 FACS Binning RPA-T4-PE-Dazzle 594 [7]	SKW3 FACS Binning OKT4 A488 [8]	PBMCs, anti-mFc 647 CD4+ Percent Bound of Viable [9] [%]	SKW3 FACS Binning OKT4a anti-hu A647 Secondary [10]	PBMCs, anti-mFc 647 CD4+ gate - RL1 Binding [11]	SKW3 WT vs KO anti-mFc-647 [12] [fold]	SKW3 WT anti-hu Kappa FITC, gMFI [13] [gMFI]
75110_06E14A (antibody, V domains shown, Tested as non-clonal AlivaMab Mouse Kappa hybridoma supernatant (detected with anti-mouse Fc gamma and anti-human kappa)) VH: QVQLQESGPGLVKPSETLSLTCTVSGGSISNYFWSWIRQPAGKGLEWIGRIYSSGNTNYNPSLKSRVTMSVDTSKNQFSLKLSSVTAADTAVYYCARDREDYYYYGMDVWGQGTTVTVSS VL: DIQMTQSPSSLSASVGDRVTITCQASQDISNYLNWYQQKPGKAPKLLIYGASILETGVPSRFTGSGSGTDFTFTISSLQPEDIATYYCQQYDSLPITFGQGTRLEIK	8920	285000	30	3	9.8	33800										
75110_14I16A (antibody, V domains shown, Tested as non-clonal AlivaMab Mouse Kappa hybridoma supernatant (detected with anti-mouse Fc gamma and anti-human kappa); also called 75110_14116A) VH: QVQLQESGPGLVKPSETLSLTCTVSNGSISSYYWSWIRQSAGKGLEWIGRIYTSGSTNYNPSLKSRVTMLVDTSKNQFSLKLSSVTAADTAVYYCARDREDYYYYGMDVWGQGTTVTVSS VL: DIQMTQSPSSLSASVGDRVTITCQASHDISNYLNWYQQKPGKAPKLLLYYASNLETGVPSRFSGSGSGTDFTFTITSLQPEDIGTYSCQQYDNLPLTFGGGTKVEIK	3550	196000	23	1.4	2.1	6820										
75110_08M20A (antibody, V domains shown, Tested as non-clonal AlivaMab Mouse Kappa hybridoma supernatant (detected with anti-mouse Fc gamma and anti-human kappa)) VH: QVQLQESDPGLVKPSETLSLTCTVSGGSISSYYWSWIRQPAGKGLEWIGRIYASGSTNYNPSLKSRVTMSVDTSKNQFSLKLSSVTAADTAVYYCARDREGYYYYGMDVWGQGTTVTVSS VL: DIQMTQSPSSLSASVGDRVTITCQASQDISKYLNWYQQKPGKAPNLLIYAASNLETGVPSRFSGSGSGTDFTFTISSLQPEDIAAYYCQQYDSLPITFGQGTRLEIK	7790	319000	30	2.7	8.8	30700										
75110_06D16A (antibody, V domains shown, Tested as non-clonal AlivaMab Mouse Kappa hybridoma supernatant: human variable domains and human kappa, mouse Fc (detected with anti-mouse Fc)) VH: QVQLQQWGAGLLKPSETLSLTCAVYGGSFSGYYWSWIRQPPGKGLEWIGEINHSGSTNYNPSLKSRVTISVVTSKNQFSLKLSSVTAADTAVYYCARVLNWFDPWGQGTLVTVSS VL: DIQMTQSPSSVSASVGDRVTITCRASQDIADWLAWYQQKPGKAPKLLIYAASSFQSGVPSRFSGSGSGTDFTLTISSLQPEDFATYFCQQANSFPYTFGQGTKLEIK							2.5	41300	1.27e+06	21300	9980	29	5800	216000	4	8670
75110_12K21A (antibody, V domains shown, Tested as non-clonal AlivaMab Mouse Kappa hybridoma supernatant: human variable domains and human kappa, mouse Fc) VH: QVQLQQWGAGLLKPSETLSLTCAVSGGSFSGYYWSWIRQPPGKGLEWIGEINHSGSTNCNPSLKSRVTISVDTSNNQFSLKLSSVTAADTAVYYCARVLNYFDYWGQGTLVTVSS VL: DIQMTQSPSSVSASVGDRVTITCRASPDIANWLAWYQQKPGKAPELLIYAASSLQSGVPSRFSGSGSGTDFTLTISSLQPEDFATYFCQQANSFPLTFGGGTKVESK							2.8	25000	1.41e+06	10900	10000	30	8240	335000	6.6	5620
75110_07B16A (antibody, IgG1, V domains shown, Tested as non-clonal AlivaMab Mouse Kappa hybridoma supernatant: human variable domains and human kappa, mouse Fc) VH: QVQLQQWGAGLLKPSETLSLTCAVYGGSFSGYYWSWIRQSPGKGLEWIGEINQSGSTNYNPSLKSRVTISVDTSKDQFSLKLSSVTAADTAVYYCARVINWFDSWGQGSLVTVSS VL: DIQMTQSPSSVSASVGDRVTITCRASQGISSWLAWYQQKPGKAPKLLIYDASSFQSGVPSRFSGSGSGTDFTLTISSLQTDDFATYYCQQANSFPYTFGQGTKLEIK							3	30800	1.31e+06	20600	9280	29	5320	274000	11.4	7220
75110_12C19A (antibody, IgG1, V domains shown, Tested as non-clonal AlivaMab Mouse Kappa hybridoma supernatant: human variable domains and human kappa, mouse Fc) VH: EVQLVESGGGLVQPGGSLRLSCAASGFTFSSYWMSWVRQAPGKGLEWVANIKEDGSDKYYVDSVKGRFTISRDNAKNSLYLQMNSLRAEDTAVHYCVREGGQWLALDYWGQGTLVTVSS VL: DIQMTQSPSSVSGSVGDRVTITCRASQGISSWLAWYQQKPGKAPKLLIYGASSLQSGVPSRFSGSGSGTDFTLTISSLQPEDFVTYYCQQANSFPWTFGQGTKVEIK							2.3	29300	1.51e+06	11900	9580	31	7140	341000	7.2	6850
75110_13C13A (antibody, IgG1, V domains shown, Tested as non-clonal AlivaMab Mouse Kappa hybridoma supernatant: human variable domains and human kappa, mouse Fc) VH: QVQLQQWGAGLLKPSETLSLTCAVSGGSFSGYYWSWIRQPPGKGLEWIGEINHSGSTNCNPSLKSRVTISVDTSKNQFSLKLSSVTAADTAMYYCARVLNFFDYWGQGTLVTVSS VL: DIQMTQTPSSVSASVGDRVTITCRASPGISNWLAWYQQKPGKAPELLIYAASSLQSGVPSRFSGSGSGTDFTLTISSLQPEDFATYFCQQANSFPLTFGGGTKVESK							3.1	23900	1.17e+06	20800	9760	6	5500	99600	6.8	7240
